This note sets out measurements from PMC4072462.

In this data set the target is FabR_vc (N-terminal His6) (Vibrio cholerae, UniProt Q9KVJ2 1-213). The data set is described as follows: EMSA.

B1: fabAec B+D (dsDNA)
DNA 1: TTTATTCCGAACTGATCGGACTTGTTCAGCGTACACGTGTTAGCTATCCTGCGTGC
DNA 2: GCACGCAGGATAGCTAACACGTGTACGCTGAACAAGTCCGATCAGTTCGGAATAAA
For B1, the binding result is given as “binds”.

B2: fabBec B+D (dsDNA)
DNA 1: TCTATTAAATGGCTGATCGGACTTGTTCGGCGTACAAGTGTACGCTATTGTGCATTC
DNA 2: GAATGCACAATAGCGTACACTTGTACGCCGAACAAGTCCGATCAGCCATTTAATAGA
Consider B2, for which the binding result is “binds”.
